Test results as given in patent publication US10590193 (dated 2020).

T1: human VEGF165 (human, UniProt P15692)
T1 chain: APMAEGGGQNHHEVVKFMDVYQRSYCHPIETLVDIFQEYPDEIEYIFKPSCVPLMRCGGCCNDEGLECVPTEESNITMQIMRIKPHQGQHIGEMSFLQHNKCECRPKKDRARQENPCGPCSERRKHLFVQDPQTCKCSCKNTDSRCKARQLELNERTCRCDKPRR


What was measured:
human VEGF165 [1] = target: T1, human VEGF165; assay: SPR, pH 5
human VEGF165 [2] = target: T1, human VEGF165; assay: SPR, pH 7.4
human VEGF165 [3] = target: T1, human VEGF165; assay: SPR, pH 5

Kd (human VEGF165 [1])	Kd (human VEGF165 [2])	Kd (human VEGF165 [3])	Binder
4.53 nM	0.0922 nM		435-max (antibody, V domains shown) VH: EVQLVESGGGLVQPGGSLRLSCKVSGFSLNTNYWMCWVRQAPGKGLEWVGCMYTGSYNRAYYASWAKGRFTSSKDTSKNTVYLQMNSLRAEDTAVYYCAKGSNWYSDLWGQGTLVTVSS VL: EIVMTQSPSTLSASVGDRVIIKCQASQSIGSSLAWYQQKPGKAPKLLIYTAANLASGVPSRFSGSGSGAEFTLTISSLQPDDFATYYCQNFATSDTVTFGQGTKLTVLG
		0.2 nM	578 wildtype C-His (798) (antibody, V domains shown) VH: QSVEESGGRLVTPGTPLTLTCTASGFSLTDYYYMTWVRLAPGKGLEYIGFIDPDDDPYYATWAKGRFTISRTSTTVNLKMTSPTTEDTATYFCAGGDHNSGWGLDIWGPGTLVTVSL VL: DVVMTQTPSSVSAAVGDTVTINCQASEIIHSWLAWYQQKPGQPPKLLIYLASTLASGVPSRFKGSGSGTQFTLTISDLECADAAIYYCQNVYLASTNGANFGGGTEVVVK
2.68 nM	4.74 nM		375-max (antibody, V domains shown) VH: EVQLVESGGGLVQPGGSLRLSCKASGFSFTTTDYMCWVRQAPGKGLEWVGCILAGDGSTYYANWAKGRFTGSKDTSKNTVYLQMNSLRAEDTAVYYCARSDPASSWSFALWGQGTLVTVSS VL: EIVMTQSPSTLSASVGDRVIITCQASENINIWLSWYQQKPGKAPKLLIYQASKLASGVPSRFSGSGSGTQFTLTISSLQPDDFATYYCQNNYSYNRYGAPFGQGTKLTVLG
		0.266 nM	578-max FW1.4_DHP (960) (antibody, V domains shown) VH: EVQLVESGGGSVQPGGSLRLSCTASGFSLTDYYYMTWVRQAPGKGLEWVGFIDPDDDPYYATWAKGRFTISRDTSKNTVYLQMNSLRAEDTATYYCAGGDHNSGWGLDIWGQGTTVTVSS VL: EIVMTQSPSTLSASVGDRVIITCQASEIIHSWLAWYQQKPGKAPKLLIYLASTLASGVPSRFSGSGSGTQFTLTISSLQPDDFATYYCQNVYLASTNGANFGQGTKLTVLG
		0.615 nM	578min_max T84N_V89A (1009) (antibody, V domains shown) VH: EVQLVESGGGLVQPGGSLRLSCTASGFSLTDYYYMTWVRQAPGKGLEWVGFIDPDDDPYYATWAKGRFTISRDNSKNTAYLQMNSLRAEDTAVYYCAGGDHNSGWGLDIWGQGTLVTVSS VL: EIVMTQSPSTLSASVGDRVIITCQASEIIHSWLAWYQQKPGKAPKLLIYLASTLASGVPSRFSGSGSGAEFTLTISSLQPDDFATYYCQNVYLASTNGANFGQGTKLTVLG
		0.971 nM	578min_max T84N (991) (antibody, V domains shown) VH: EVQLVESGGGLVQPGGSLRLSCTASGFSLTDYYYMTWVRQAPGKGLEWVGFIDPDDDPYYATWAKGRFTISRDNSKNTVYLQMNSLRAEDTAVYYCAGGDHNSGWGLDIWGQGTLVTVSS VL: EIVMTQSPSTLSASVGDRVIITCQASEIIHSWLAWYQQKPGKAPKLLIYLASTLASGVPSRFSGSGSGAEFTLTISSLQPDDFATYYCQNVYLASTNGANFGQGTKLTVLG
		6.55 nM	578-max-min (902) (antibody, V domains shown) VH: EVQLVESGGGLVQPGGSLRLSCAASGFSLTDYYYMTWVRQAPGKGLEWVSFIDPDDDPYYATWAKGRFTISRDNSKNTLYLQMNSLRAEDTAVYYCAKGDHNSGWGLDIWGQGTLVTVSS VL: EIVMTQSPSTLSASVGDRVIITCQASEIIHSWLAWYQQKPGKAPKLLIYLASTLASGVPSRFSGSGSGTQFTLTISSLQPDDFATYYCQNVYLASTNGANFGQGTKLTVLG
		1.2 nM	578min_max V89A (978) (antibody, V domains shown) VH: EVQLVESGGGLVQPGGSLRLSCTASGFSLTDYYYMTWVRQAPGKGLEWVGFIDPDDDPYYATWAKGRFTISRDTSKNTAYLQMNSLRAEDTAVYYCAGGDHNSGWGLDIWGQGTLVTVSS VL: EIVMTQSPSTLSASVGDRVIITCQASEIIHSWLAWYQQKPGKAPKLLIYLASTLASGVPSRFSGSGSGAEFTLTISSLQPDDFATYYCQNVYLASTNGANFGQGTKLTVLG
		2.13 nM	578min_max V89L (980) (antibody, V domains shown) VH: EVQLVESGGGLVQPGGSLRLSCTASGFSLTDYYYMTWVRQAPGKGLEWVGFIDPDDDPYYATWAKGRFTISRDTSKNTLYLQMNSLRAEDTAVYYCAGGDHNSGWGLDIWGQGTLVTVSS VL: EIVMTQSPSTLSASVGDRVIITCQASEIIHSWLAWYQQKPGKAPKLLIYLASTLASGVPSRFSGSGSGAEFTLTISSLQPDDFATYYCQNVYLASTNGANFGQGTKLTVLG
		1.48 nM	511max_min (905) (antibody, V domains shown) VH: EVQLVESGGGLVQPGGSLRLSCAASGFSLNTYYMNWVRQAPGKGLEWVSIIAPDDTTYYASWAKSRFTISRDNSKNTLYLQMNSLRAEDTAVYYCAKSGDTTAWGADIWGQGTLVTVSS VL: EIVMTQSPSTLSASVGDRVIITCQASQSINIWLSWYQQKPGKAPKLLIYRASTLASGVPSRFSGSGSGTEFTLTISSLQPDDFATYYCQANYAYSAGYGAAFGQGTKLTVLG
		0.278 nM	511min_max (904) (antibody, V domains shown) VH: EVQLVESGGGLVQPGGSLRLSCTVSGFSLNTYYMNWVRQAPGKGLEWVGIIAPDDTTYYASWAKSRSTISRDTSKNTVYLQMNSLRAEDTAVYYCARSGDTTAWGADIWGQGTLVTVSS VL: EIVMTQSPSTLSASVGDRVIITCQASQSINIWCSWYQQKPGKAPKLLIYRASTLASGVPSRFSGSGSGAEFTLTISSLQPDDFATYYCQANYAYSAGYGAAFGQGTKLTVLG
34.1 nM			534-min C-His (antibody, V domains shown) VH: EVQLVESGGGLVQPGGSLRLSCAASGFSLSYYYMSWVRQAPGKGLEWVSIIGPGDYTDYASWAKGRFTISRDNSKNTLYLQMNSLRAEDTAVYYCAKGDDNSGWGEDIWGQGTLVTVSS VL: EIVMTQSPSTLSASVGDRVIITCQASQSINIWLSWYQQKPGKAPKLLIYKESTLASGVPSRFSGSGSGAEFTLTISSLQPDDFATYYCQNNYDSGNNGFPFGQGTKLTVLG
9.21 nM	2.47 nM		534-max (antibody, V domains shown) VH: EVQLVESGGGLVQPGGSLRLSCTASGFSLSYYYMSWVRQAPGKGLEWVGIIGPGDYTDYASWAKGRFTISKDTSKNTVYLQMNSLRAEDTAVYYCARGDDNSGWGEDIWGQGTLVTVSS VL: EIVMTQSPSTLSASVGDRVIITCQASQSINIWLSWYQQKPGKAPKLLIYKESTLASGVPSRFSGSGSGTEFTLTISSLQPDDFATYYCQNNYDSGNNGFPFGQGTKLTVLG
